Assay [1] has as its target T1, human TL1A extracellular domain with N-terminal HIS and FLAG tag (human, UniProt O95150 72-251).
T1 construct: whole entry named. ~70 kDa fraction purified by gel filtration
T1 sequence: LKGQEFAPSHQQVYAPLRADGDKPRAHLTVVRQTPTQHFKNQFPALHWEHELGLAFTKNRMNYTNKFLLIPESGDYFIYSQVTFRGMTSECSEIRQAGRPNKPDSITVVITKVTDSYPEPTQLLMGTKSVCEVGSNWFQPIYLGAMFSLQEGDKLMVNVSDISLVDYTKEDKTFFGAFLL
Nature of the assay: KinExA, TL1A as CBP, free TL1A captured on 320-587-coated PMMA beads; average of two.

Assay [2] has as its target T1, human TL1A extracellular domain with …. The assay is described as follows: KinExA, 320-587 as CBP, free 320-587 captured on TL1A-coated Sepharose beads; repeat 2. On the technique in general: In KinExA the mixture passes briefly over coated beads that capture the unbound partner.
Assay [3] deals with T2, guinea pig TL1A (guinea pig).
T2 construct: recombinantly produced; whole entry named
T2 chain: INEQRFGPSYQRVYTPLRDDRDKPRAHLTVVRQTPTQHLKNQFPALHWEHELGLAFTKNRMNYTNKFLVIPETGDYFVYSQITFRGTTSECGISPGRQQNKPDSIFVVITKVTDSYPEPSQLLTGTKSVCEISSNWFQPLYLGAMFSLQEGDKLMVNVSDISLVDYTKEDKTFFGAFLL
Nature of the assay: SPR: 320-587 captured on Protein A, TL1A of the species flowed over. For orientation: In SPR one partner is held on a chip, and binding of the other changes the refractive index at the surface.

In assay [4] the target is T3, rat TL1A (rat, UniProt Q8K3Y7 73-252).
T3 construct: recombinantly produced; whole entry named
T3 sequence: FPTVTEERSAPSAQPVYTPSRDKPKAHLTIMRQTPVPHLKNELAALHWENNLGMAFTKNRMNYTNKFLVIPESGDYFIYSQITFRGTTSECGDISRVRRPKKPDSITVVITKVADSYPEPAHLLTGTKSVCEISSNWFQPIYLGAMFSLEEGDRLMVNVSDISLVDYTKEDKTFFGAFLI
The assay is described as above.

Assay [5] has as its target T4, cat TL1A (cat).
T4 construct: recombinantly produced; whole entry named
T4 chain: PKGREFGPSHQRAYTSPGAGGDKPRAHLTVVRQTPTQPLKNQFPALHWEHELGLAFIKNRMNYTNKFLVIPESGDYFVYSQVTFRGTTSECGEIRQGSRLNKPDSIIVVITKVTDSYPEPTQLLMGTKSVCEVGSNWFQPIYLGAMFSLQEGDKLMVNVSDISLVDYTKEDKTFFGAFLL
Described as above.

The target in assay [6] is T5, mouse TL1A (mouse, UniProt Q5UBV8 73-252).
T5 construct: recombinantly produced; whole entry named
T5 sequence: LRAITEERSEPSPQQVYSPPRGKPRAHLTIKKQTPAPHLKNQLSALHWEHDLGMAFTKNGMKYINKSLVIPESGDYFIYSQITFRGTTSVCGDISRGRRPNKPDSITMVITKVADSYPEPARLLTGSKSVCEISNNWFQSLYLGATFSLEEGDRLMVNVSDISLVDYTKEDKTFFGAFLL
Described as above.

The target of assay [7] is T6, cynomolgus monkey TL1A (cynomolgus monkey, UniProt O95150 72-251 (human entry), limits assumed).
T6 construct: recombinantly produced; whole entry named
T6 chain: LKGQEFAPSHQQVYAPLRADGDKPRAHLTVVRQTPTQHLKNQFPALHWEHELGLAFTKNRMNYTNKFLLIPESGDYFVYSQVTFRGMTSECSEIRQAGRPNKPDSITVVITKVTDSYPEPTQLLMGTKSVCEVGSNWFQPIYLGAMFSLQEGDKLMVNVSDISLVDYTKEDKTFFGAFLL
Described as above.

The target in assay [8] is T7, rabbit TL1A (rabbit).
T7 construct: recombinantly produced; whole entry named
T7 chain: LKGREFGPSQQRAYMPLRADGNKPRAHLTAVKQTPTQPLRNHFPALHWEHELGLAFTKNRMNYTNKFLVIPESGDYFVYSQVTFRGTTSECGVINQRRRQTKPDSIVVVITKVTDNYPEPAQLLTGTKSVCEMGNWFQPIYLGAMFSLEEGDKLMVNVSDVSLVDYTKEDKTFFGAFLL
The assay is described as above.

Assay [9] deals with T8, dog TL1A (dog).
T8 construct: recombinantly produced; whole entry named
T8 chain: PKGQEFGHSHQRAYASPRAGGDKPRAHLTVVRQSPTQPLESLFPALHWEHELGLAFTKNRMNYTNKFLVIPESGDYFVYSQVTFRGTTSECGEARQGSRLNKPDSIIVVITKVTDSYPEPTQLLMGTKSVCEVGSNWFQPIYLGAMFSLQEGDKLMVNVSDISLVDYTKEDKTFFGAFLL
The description is as above.

In assay [10] the target is T1, human TL1A extracellular domain with …. The assay is described as follows: KinExA, 320-587 as CBP, free 320-587 captured on TL1A-coated Sepharose beads; repeat 1.
Assay [11] shares this target. Nature of the assay: KinExA, TL1A as CBP, free TL1A captured on 320-587-coated PMMA beads; repeat 2.
Assay [12] has the same target. Nature of the assay: KinExA, 320-587 as CBP, free 320-587 captured on TL1A-coated Sepharose beads; average of two.
For assay [13] the target is unchanged. Nature of the assay: KinExA, TL1A as CBP, free TL1A captured on 320-587-coated PMMA beads; repeat 1.
Assay [14] concerns the target T9, single-site biotinylated human TL1A (human, UniProt O95150 72-251, single-site biotinylated (site not stated)).
T9 construct: construct used for biotinylation not described
T9 sequence: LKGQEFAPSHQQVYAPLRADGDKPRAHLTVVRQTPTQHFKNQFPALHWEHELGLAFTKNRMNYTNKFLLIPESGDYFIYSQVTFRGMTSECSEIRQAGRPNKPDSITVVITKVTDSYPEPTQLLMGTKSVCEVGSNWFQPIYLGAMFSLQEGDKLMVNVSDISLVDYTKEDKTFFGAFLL
The assay is described as follows: competition ELISA: antibody dilutions pre-incubated with biotinylated human TL1A (1 µg/ml), added to plate-coated DcR3/Fc; bound TL1A detected with streptavidin-HRP; blocked partner DcR3/Fc [bottom panel]. Here is the method:
1.8. […] DR3/Fc Chimera (R&D Systems) or DcR3/Fc Chimera (R&D Systems) was coated onto a 96-well plate (Maxisorp, Nunc) at a concentration of 2 μg/ml.
Background: In an ELISA, binding on a coated surface is turned into a signal by an enzyme label.

Assay [15] deals with T10, human TL1A extracellular domain with N-terminal HIS and FLAG tag (human, UniProt O95150 72-251).
T10 construct: the whole entry is named; also called TNFSF15
T10 sequence: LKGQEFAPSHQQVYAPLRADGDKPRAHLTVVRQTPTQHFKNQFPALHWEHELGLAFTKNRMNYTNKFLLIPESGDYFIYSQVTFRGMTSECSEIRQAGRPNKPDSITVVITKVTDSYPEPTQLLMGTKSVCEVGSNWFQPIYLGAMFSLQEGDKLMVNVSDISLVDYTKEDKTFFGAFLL
The assay is described as follows: KinExA, Sepharose beads coated with TL1A, 320-587 as the CBP, assay 2.

The target in assay [16] is T10, human TL1A extracellular domain with …. The assay is described as follows: KinExA, PMMA beads coated with 320-587, TL1A as the CBP, assay 1. Here is the method:
(§1) Using the time to reach equilibrium determined above, all curves were allowed to come to equilibrium in a 25° C. incubator for 3 days.

For assay [17] the target is unchanged. Nature of the assay: KinExA, Sepharose beads coated with TL1A, 320-587 as the CBP, assay 4.
For assay [18] the target is unchanged. The assay is described as follows: KinExA, Sepharose beads coated with TL1A, 320-587 as the CBP, average of 5 assays (SD 8.33).
Assay [19] has the same target. Nature of the assay: SPR Run 8, antibody on Protein A, TL1A 5 ug/mL, timepoint 590. An excerpt:
(§2) 1.5. Antibody expression and antigen binding as determined by SPR. Using a CM5 sensor chip (GE Healthcare) Protein A (Pierce) was coupled to the chip surface using an amine coupling kit (GE Healthcare). Protein A was coupled on flow cell 1 and 2 (or alternatively 3 and 4) using a BIACORE® T200. […] The amount of supernatant or purified protein (as well as the concentration) injected during the capture stage varied between runs and is specified in the header of the Tables 3-11. At the end of injection of the supernatant or purified antibody the change in response units was measured. This value was reported as Capture Level in Tables 3-11. […] The response units were measured prior to the end of the dissociation phase. […] The sensorgrams were double referenced (flow cell 2 is subtracted from flow cell 1 and a buffer blank). As there were a large number of antibody variants to screen, these were screened across different runs (Tables 3-11). […] A summary of the conditions used in each run is below:
(§3) 2.1. […] In some experiment the antibodies were purified using Protein A chromatography (See 1.4) and purified antibodies were used in BIACORE® (GE Healthcare) experiments.

Assay [20] shares this target. The assay is described as follows: KinExA, PMMA beads coated with 320-587, TL1A as the CBP, average of 3 assays (SD 13.5). Here is the method: as §1
For assay [21] the target is unchanged. Nature of the assay: SPR Run 8, antibody on Protein A, TL1A 5 ug/mL, timepoint 44.
Description: as §2, §3

Assay [22] has the same target. The assay is described as follows: KinExA, Sepharose beads coated with TL1A, 320-587 as the CBP, assay 5.
Assay [23] has the same target. Nature of the assay: KinExA, PMMA beads coated with 320-587, TL1A as the CBP, assay 2. The procedure:
as §1

The target is the same in assay [24]. Nature of the assay: KinExA, PMMA beads coated with 320-587, TL1A as the CBP, assay 3. The procedure:
as §1

Assay [25] shares this target. Nature of the assay: KinExA, Sepharose beads coated with TL1A, 320-587 as the CBP, assay 3.
Assay [26] shares this target. The assay is described as follows: cell-based or functional assay.
For assay [27] the target is unchanged. The assay is described as follows: KinExA, Sepharose beads coated with TL1A, 320-587 as the CBP, assay 1.

B1: 320-587 (antibody, name in Kabat numbering, V domains shown)
VH: QVQLVQSGAEVKKPGASVKVSCKASGYTFTSYDINWVRQAPGQGLEWMGWLNPNSGYTGYAQKFQGRVTMTADRSTSTAYMELSSLRSEDTAVYYCAREVPETAAFEYWGQGTLVTVSS
VL: QSVLTQPPSVSGAPGQRVTISCTSSSSDIGAGLGVHWYQQLPGTAPKLLIEGYYNRPSGVPDRFSGSKSGTSASLTITGLLPEDEGDYYCQSWDGTLSALFGGGTKLTVLG
notes: human IgG1, lambda
One may read the kon as the second-order rate constant of association. On to B1, for which the kon in assay [1] amounted to 593000 M⁻¹ s⁻¹; in assay [2], 745000 M⁻¹ s⁻¹; in [10], 835000 M⁻¹ s⁻¹; in assay [11] it was 574000 M⁻¹ s⁻¹; in [12] it was 790000 M⁻¹ s⁻¹; in assay [13], 611000 M⁻¹ s⁻¹. Further, the binding result in assay [3], in assay [4], in [5], in assay [6], in [7] and in assay [8] was “binds” in each case. For the same molecule, in [9], the binding result is “binds”. Also, the “IC50 (read off the curve)” value in [14] is ~1 µg/mL.

B2: 320-587 (antibody, name in Kabat numbering, V domains shown)
VH: QVQLVQSGAEVKKPGASVKVSCKASGYTFTSYDINWVRQAPGQGLEWMGWLNPNSGYTGYAQKFQGRVTMTADRSTSTAYMELSSLRSEDTAVYYCAREVPETAAFEYWGQGTLVTVSS
VL: QSVLTQPPSVSGAPGQRVTISCTSSSSDIGAGLGVHWYQQLPGTAPKLLIEGYYNRPSGVPDRFSGSKSGTSASLTITGLLPEDEGDYYCQSWDGTLSALFGGGTKLTVLG
notes: full-length human IgG1, lambda
As a reminder, the Kd is the concentration at which binding is half-saturated. On to B2, for which the Kd was found to be 0.052 nM in assay [15]; 0.0334 nM in assay [16]; 0.0324 nM in assay [17]; 0.041 nM in assay [18]; 0.0415 nM in assay [20]; 0.0337 nM in [22]. Moreover, the Kd came to 0.0571 nM in [23], 0.0341 nM in [24], 0.0463 nM in [25] and 0.0404 nM in [27]. Also, in assay [19], the “TL1A Binding Level (Late)” value was found to be 122 RU. The “TL1A Binding Level (Early)” value in assay [21] was determined as 123 RU. The “Antibody IC50, TL1A induced caspase potency assay in TF-1 cells” value in assay [26] amounted to 0.001 µg/mL. In assay [26], the “Fold improvement over 320-179, TL1A induced caspase potency assay in TF-1 cells” value worked out at 40 fold.

For the origin of these results see patent US20170081400A1 (CEPHALON, published 2017).
